Measured values as given in patent US20030113867A1.

Columns and labels:
[1] = molecular target: prokineticin receptor(s) of guinea pig ileal smooth muscle (ileal membrane preparation / ileum longitudinal muscle) (guinea pig); test: saturation binding of 125I-prokineticin 1 to guinea pig ileal membranes, high-affinity site, n=3
[2] = molecular target: prokineticin receptor(s) of guinea pig ileal smooth muscle (ileal membrane preparation / ileum longitudinal muscle) (guinea pig); test: saturation binding of 125I-prokineticin 1 to guinea pig ileal membranes, low-affinity site, n=3
[3] = molecular target: prokineticin receptor expressed endogenously on M2A7 melanoma cells (ATCC CRL-2500); test: cell-based or functional assay
[4] = molecular target: prokineticin receptor(s) of guinea pig ileal smooth muscle (ileal membrane preparation / ileum longitudinal muscle) (guinea pig); test: cell-based or functional assay
[5] = molecular target: prokineticin receptor(s) of guinea pig ileal smooth muscle (ileal membrane preparation / ileum longitudinal muscle) (guinea pig); test: displacement of 125I-prokineticin 1 (20 pM) from guinea pig ileal membranes by unlabeled prokineticin 1, two-site model, high-affinity site
[6] = molecular target: prokineticin receptor(s) of guinea pig ileal smooth muscle (ileal membrane preparation / ileum longitudinal muscle) (guinea pig); test: displacement of 125I-prokineticin 1 (20 pM) from guinea pig ileal membranes by unlabeled prokineticin 1, two-site model, low-affinity site
[7] = molecular target: prokineticin receptor(s) of guinea pig ileal smooth muscle (ileal membrane preparation / ileum longitudinal muscle) (guinea pig); test: competition radioligand binding on guinea pig ileal membranes, filtration; unlabeled prokineticin 1 varied against 125I-prokineticin 1 (20 pM)
[8] = molecular target: prokineticin receptor(s) of guinea pig ileal smooth muscle (ileal membrane preparation / ileum longitudinal muscle) (guinea pig); test: saturation binding of 125I-prokineticin 1 to guinea pig ileal membranes, Scatchard analysis, two-site model, high-affinity site, n=3
[9] = molecular target: prokineticin receptor(s) of guinea pig ileal smooth muscle (ileal membrane preparation / ileum longitudinal muscle) (guinea pig); test: saturation binding of 125I-prokineticin 1 to guinea pig ileal membranes, Scatchard analysis, two-site model, low-affinity site, n=3
[10] = molecular target: prokineticin receptor expressed endogenously on M2A7 melanoma cells (ATCC CRL-2500); test: binding of iodinated prokineticin 1 to M2A7 melanoma cells
[11] = molecular target: prokineticin receptor(s) of guinea pig ileal smooth muscle (ileal membrane preparation / ileum longitudinal muscle) (guinea pig); test: displacement of 125I-prokineticin 1 (20 pM) from guinea pig ileal membranes by unlabeled prokineticin 2, low-affinity site
[12] = molecular target: prokineticin receptor(s) of guinea pig ileal smooth muscle (ileal membrane preparation / ileum longitudinal muscle) (guinea pig); test: competition radioligand binding on guinea pig ileal membranes, filtration; unlabeled prokineticin 2 varied against 125I-prokineticin 1 (20 pM)
[13] = molecular target: prokineticin receptor(s) of guinea pig ileal smooth muscle (ileal membrane preparation / ileum longitudinal muscle) (guinea pig); test: displacement of 125I-prokineticin 1 (20 pM) from guinea pig ileal membranes by unlabeled prokineticin 2, high-affinity site

B1: recombinant refolded human prokineticin 1 with C-terminal 6xHis-tag (ligand)
chain: AVITGACERDVQCGAGTCCAISLWLRGLRMCTPLGREGEECHPGSHKVPFFRKRKHHTCPCLPNLLCSRFPDGRYRCSMDLKNINFHHHHHH
modifications: 125I-iodinated by the iodogen method where used as the labeled ligand; plain where used as unlabeled competitor; five disulfide bonds
B1 was tested, and the Bmax (fmol/mg of protein) [1] was 7.8, the Bmax (fmol/mg of protein) [2] was 26.4 and the calcium mobilization in M2A7 melanoma cells (FLIPR), EC50 [3] was 12 nM. It also gave a contraction of guinea-pig ileum longitudinal muscle, ED50 [4] of 0.46 nM, a time constant to midway contraction of ileal strips [4] of 15 min and a Ki [5] of 0.008 nM. The Ki [6] was 1.5 nM, the IC50 (read off the curve) [7] was 5 nM and the Kd [8] was 0.005 nM. It also gave a Kd [9] of 0.227 nM and a receptor level (fmole/mg protein) [10] of 150.

B2: chimeric prokineticin 21 (exons 1 and 2 of prokineticin 2, exon 3 of prokineticin 1) (ligand)
chain: AVITGACDKDSQCGGGMCCAVSIWVKSIRICTPMGKLGDSCHPLTRKVPFFRKRKHHTCPCLPNLLCSRFPDGRYRCSMDLKNINF
For B2, the EC50 of ileal contraction relative to prokineticin 1 or prokineticin 2 [4] was 8 fold and the time constant to midway contraction of ileal strips [4] was 40 min.

B3: recombinant refolded human prokineticin 2 with C-terminal 6xHis-tag (ligand)
chain: AVITGACDKDSQCGGGMCCAVSIWVKSIRICTPMGKLGDSCHPLTRKVPFFGRRMHHTCPCLPGLACLRTSFNRFICLAQKHHHHHH
B3 gave a Ki [11] of 1.22 nM, a calcium mobilization in M2A7 melanoma cells (FLIPR), EC50 [3] of 21 nM and a contraction of guinea-pig ileum longitudinal muscle, ED50 [4] of 0.9 nM. The time constant to midway contraction of ileal strips [4] was 15 min, the IC50 (read off the curve) [12] was 4 nM and the Ki [13] was 0.0042 nM.

B4: chimeric prokineticin 12 (exons 1 and 2 of prokineticin 1, exon 3 of prokineticin 2) (ligand)
chain: AVITGACERDVQCGAGTCCAISLWLRGLRMCTPLGREGEECHPGSHKVPFFGRRMHHTCPCLPGLACLRTSFNRFICLAQK
B4 was tested, and the time constant to midway contraction of ileal strips [4] was 40 min.
